# Measured values as given in the Immune Epitope Database (IEDB).
# How the values were obtained:
# HLA-A*31:01 = experiment: IEDB peptide-MHC binding, purified MHC/direct/fluorescence; filed as Kd, often an IC50 or EC50 that approximates it; ≥ and ≤ were set here for values at or beyond the usual limits of such assays
# HLA-B*57:01 [1] = experiment: as above
# HLA-B*58:01 = experiment: as above
# HLA-A*26:03 [2] = experiment: as above
# HLA-A*26:02 [3] = experiment: as above
# HLA-B*44:02 = experiment: as above; conditions: source organism: Orthomarburgvirus marburgense
# HLA-A*68:02 [4] = experiment: as above
# HLA-B*18:01 [5] = experiment: as above
# HLA-A*11:01 [6] = experiment: as above
# HLA-B*40:01 = experiment: as above
# HLA-A*01:01 [7] = experiment: as above
# HLA-B*15:17 [8] = experiment: as above; conditions: source organism: Orthomarburgvirus marburgense
# HLA-A*69:01 [9] = experiment: as above
# HLA-B*08:03 = experiment: as above
# HLA-B*48:01 = experiment: as above
# HLA-B*27:05 [10] = experiment: as above
# HLA-A*02:01 [11] = experiment: as above
# HLA-B*07:02 = experiment: as above
# HLA-B*08:02 = experiment: as above
# HLA-A*02:06 = experiment: IEDB peptide-MHC binding, purified MHC/competitive/fluorescence; filed as Kd, often an IC50 or EC50 that approximates it; ≥ and ≤ were set here for values at or beyond the usual limits of such assays
# HLA-B*39:01 = experiment: as above; conditions: source organism: Orthomarburgvirus marburgense
# HLA-B*08:01 = experiment: IEDB peptide-MHC binding, purified MHC/direct/fluorescence; filed as Kd, often an IC50 or EC50 that approximates it; ≥ and ≤ were set here for values at or beyond the usual limits of such assays
# HLA-A*26:01 = experiment: as above
# HLA-A*03:01 = experiment: as above
# HLA-B*46:01 = experiment: as above
# HLA-B*15:01 [12] = experiment: as above; conditions: source organism: Burkholderia mallei
# HLA-A*68:02 [13] = experiment: IEDB peptide-MHC binding, purified MHC/competitive/fluorescence; filed as Kd, often an IC50 or EC50 that approximates it; ≥ and ≤ were set here for values at or beyond the usual limits of such assays
# HLA-B*15:17 [14] = experiment: as above
# HLA-B*27:05 [15] = experiment: as above; conditions: source organism: Burkholderia mallei NCTC 10229
# HLA-A*02:01 [16] = experiment: as above
# HLA-A*26:02 [17] = experiment: as above
# HLA-A*30:01 = experiment: as above; conditions: source organism: Human immunodeficiency virus 1
# HLA-B*18:01 [18] = experiment: as above
# HLA-A*11:01 [19] = experiment: as above; conditions: source organism: Human immunodeficiency virus 1
# HLA-A*01:01 [20] = experiment: as above; conditions: source organism: Human immunodeficiency virus 1
# HLA-A*69:01 [21] = experiment: as above; conditions: source organism: Human immunodeficiency virus 1
# HLA-A*02:03 = experiment: as above; conditions: source organism: Human immunodeficiency virus 1
# HLA-B*57:01 [22] = experiment: as above; conditions: source organism: Giardia lamblia ATCC 50803
# HLA-B*15:01 [23] = experiment: as above
# HLA-A*24:03 = experiment: IEDB peptide-MHC binding, purified MHC/direct/fluorescence; filed as Kd, often an IC50 or EC50 that approximates it; ≥ and ≤ were set here for values at or beyond the usual limits of such assays; conditions: source organism: Cowpox virus
# HLA-A*26:03 [24] = experiment: IEDB peptide-MHC binding, purified MHC/competitive/fluorescence; filed as Kd, often an IC50 or EC50 that approximates it; ≥ and ≤ were set here for values at or beyond the usual limits of such assays; conditions: source organism: Variola virus
# [25] = source organism: Orthomarburgvirus marburgense
# [26] = source organism: Ravn virus - Ravn, Kenya, 1987
# [27] = source organism: Burkholderia mallei
# [28] = source organism: Burkholderia mallei ATCC 23344
# [29] = source organism: Burkholderia mallei NCTC 10229
# [30] = source organism: Human immunodeficiency virus 1
# [31] = source organism: Giardia intestinalis
# [32] = source organism: Giardia lamblia ATCC 50803
sequence,measurement,setting,value
LEHGLYPQL,Kd,HLA-A*31:01; [25],≥ 20 µM
same,Kd,HLA-B*57:01 [1]; [25],≥ 20 µM
same,Kd,HLA-B*58:01; [25],≥ 20 µM
same,Kd,HLA-A*26:03 [2]; [26],≥ 20 µM
same,Kd,HLA-A*26:02 [3]; [26],≥ 20 µM
same,Kd,HLA-B*44:02,≥ 5 µM
same,Kd,HLA-A*68:02 [4]; [25],≥ 20 µM
same,Kd,HLA-B*18:01 [5]; [25],0.034 µM
same,Kd,HLA-A*11:01 [6]; [25],≥ 20 µM
same,Kd,HLA-B*40:01; [25],0.017 µM
same,Kd,HLA-A*01:01 [7]; [25],≥ 20 µM
same,Kd,HLA-B*15:17 [8],≥ 20 µM
same,Kd,HLA-A*69:01 [9]; [25],≥ 20 µM
same,Kd,HLA-B*08:03; [26],≥ 20 µM
same,Kd,HLA-B*48:01; [25],0.634 µM
same,Kd,HLA-B*27:05 [10]; [25],≥ 20 µM
same,Kd,HLA-A*02:01 [11]; [25],≥ 20 µM
same,Kd,HLA-B*07:02; [25],≥ 20 µM
same,Kd,HLA-B*08:02; [26],≥ 20 µM
same,Kd,HLA-A*02:06; [25],≥ 20 µM
same,Kd,HLA-B*39:01,0.931 µM
RRSLLAHVR,Kd,HLA-A*31:01; [27],5.4 µM
same,Kd,HLA-B*57:01 [1]; [27],≥ 20 µM
same,Kd,HLA-B*08:01; [28],≥ 20 µM
same,Kd,HLA-B*58:01; [27],≥ 20 µM
same,Kd,HLA-A*26:01; [28],≥ 20 µM
same,Kd,HLA-A*03:01; [27],1.18 µM
same,Kd,HLA-A*26:03 [2]; [28],≥ 20 µM
same,Kd,HLA-A*26:02 [3]; [28],≥ 20 µM
same,Kd,HLA-B*18:01 [5]; [27],≥ 20 µM
same,Kd,HLA-A*11:01 [6]; [27],1.13 µM
same,Kd,HLA-B*40:01; [27],≥ 20 µM
same,Kd,HLA-A*01:01 [7]; [27],≥ 20 µM
same,Kd,HLA-B*46:01; [27],≥ 20 µM
same,Kd,HLA-B*15:01 [12],≥ 20 µM
same,Kd,HLA-B*48:01; [27],≥ 20 µM
same,Kd,HLA-B*07:02; [27],≥ 20 µM
same,Kd,HLA-B*08:02; [28],≥ 20 µM
same,Kd,HLA-A*68:02 [13]; [29],2.92 µM
same,Kd,HLA-B*15:17 [14]; [29],≥ 20 µM
same,Kd,HLA-B*27:05 [15],0.0066 µM
same,Kd,HLA-A*02:01 [16]; [29],0.034 µM
RSLYNTVATLY,Kd,HLA-A*26:02 [17]; [30],≥ 20 µM
same,Kd,HLA-A*02:06; [30],≥ 20 µM
same,Kd,HLA-A*30:01,≥ 20 µM
same,Kd,HLA-B*18:01 [18]; [30],0.0763 µM
same,Kd,HLA-A*11:01 [19],≥ 20 µM
same,Kd,HLA-A*01:01 [20],≥ 20 µM
same,Kd,HLA-B*15:17 [14]; [30],0.0007 µM
same,Kd,HLA-A*69:01 [21],16.6 µM
same,Kd,HLA-A*02:03,≥ 20 µM
RTMPLSRFT,Kd,HLA-A*31:01; [31],12.5 µM
same,Kd,HLA-B*08:01; [32],≥ 20 µM
same,Kd,HLA-B*58:01; [31],≥ 20 µM
same,Kd,HLA-A*26:01; [32],≥ 20 µM
same,Kd,HLA-A*03:01; [31],≥ 20 µM
same,Kd,HLA-A*26:03 [2]; [32],≥ 20 µM
same,Kd,HLA-B*18:01 [5]; [31],≥ 20 µM
same,Kd,HLA-A*11:01 [6]; [31],2.68 µM
same,Kd,HLA-B*40:01; [31],≥ 20 µM
same,Kd,HLA-A*01:01 [7]; [31],≥ 20 µM
same,Kd,HLA-A*69:01 [9]; [31],≥ 20 µM
same,Kd,HLA-B*46:01; [31],≥ 20 µM
same,Kd,HLA-B*08:03; [32],≥ 20 µM
same,Kd,HLA-B*48:01; [31],≥ 20 µM
same,Kd,HLA-B*27:05 [10]; [31],≥ 20 µM
same,Kd,HLA-B*07:02; [31],≥ 20 µM
same,Kd,HLA-B*08:02; [32],≥ 20 µM
same,Kd,HLA-B*57:01 [22],0.375 µM
same,Kd,HLA-A*68:02 [13]; [32],4.56 µM
same,Kd,HLA-B*15:17 [14]; [32],≥ 20 µM
same,Kd,HLA-B*15:01 [23]; [32],14 µM
same,Kd,HLA-A*02:01 [16]; [32],≥ 20 µM
STKAACPTM,Kd,HLA-A*26:01; source organism: West Nile virus,15.7 µM
same,Kd,HLA-A*26:02 [3]; source organism: West Nile virus strain PTRoxo,1.04 µM
VYSFDESSF,Kd,HLA-A*31:01; source organism: Cowpox virus,≥ 20 µM
same,Kd,HLA-B*57:01 [1]; source organism: Cowpox virus,≥ 20 µM
same,Kd,HLA-B*58:01; source organism: Cowpox virus,≥ 20 µM
same,Kd,HLA-A*68:02 [4]; source organism: Cowpox virus,≥ 20 µM
same,Kd,HLA-A*11:01 [6]; source organism: Cowpox virus,≥ 20 µM
same,Kd,HLA-A*01:01 [7]; source organism: Cowpox virus,≥ 20 µM
same,Kd,HLA-A*69:01 [9]; source organism: Cowpox virus,≥ 20 µM
same,Kd,HLA-A*24:03,0.275 µM
same,Kd,HLA-A*02:01 [11]; source organism: Cowpox virus,≥ 20 µM
same,Kd,HLA-B*07:02; source organism: Cowpox virus,≥ 20 µM
same,Kd,HLA-A*26:03 [24],1.42 µM
same,Kd,HLA-A*26:02 [17]; source organism: Variola virus,0.192 µM
same,Kd,HLA-A*02:06; source organism: Variola virus,≥ 20 µM
same,Kd,HLA-B*18:01 [18]; source organism: Variola virus,0.379 µM
same,Kd,HLA-B*15:17 [14]; source organism: Variola virus,2.1 µM
same,Kd,HLA-B*15:01 [23]; source organism: Variola virus,2.28 µM
